# Test results reported in the nanobody polyreactivity screen of Harvey et al. (2022).
# Assay: yeast display, Sf9 membrane polyspecificity reagent, FACS + sequencing; frameworks hold sequencing errors
# Outline: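 Nanobodies came from a synthetic yeast display library in Saccharomyces cerevisiae BJ5465, induced with galactose for 36–48 hours and stained for 1 hour at 4 °C with 10% biotinylated, detergent-solubilized Sf9 membrane reagent. Cells were enriched on streptavidin microbeads and then FACS-sorted, with low and high (top ~1%) gates set on anti-HA fluorescence for expression and streptavidin fluorescence for reagent binding. Each polyreactivity label reflects the gate a clone came from. Genes were amplified by colony PCR, sequenced by MiSeq 2 × 250 and filtered by CDR length.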
row,Sequence,polyreactivity (PSR sort gate)
1,QVQLVESGGGLVQAGGSLRLSCAASGSSFGYNAMGWYRQAPGKERELVAAISRSGSTYYADSVKGRFTISRDKAKNTVYLHMNSLKPEDTAVYYCDARLWWTFCEYDYWGQGTQVTVSS,high polyreactivity
2,QVQLVESGGGLVQAGGSLRLSCAASGSSFNINAMGWYRQAPGKERELVAAISWSGDITYYADSVKGRFTISRDNAKNTVYLQLNSLKPEDTAVYYCNTDDPGNYWYAEYDYWGQGTQVTVSS,low polyreactivity
3,QVQLVESGGGLVQAGGSLRLSCAASGSSFPGYAMGWYRKAPGKERELVATSTYSDGSTYYADSVKGRFTISRDNAKNTVYLQMNSLKPEDTAVYYCAVTYWWYYGYDYWGQGTQVTVSS,low polyreactivity
4,QVQLVESGGGLVQAGGSLRLSCAASGSSFPYNTMGWYRQAPGKERELVAAISSGASTNYADSVKGRFTISRDNAKNTVYLQMNSLKPEDTAVYYCAAKYNANWDFDYWGQGTQVTVSS,low polyreactivity
5,QVQLVESGGGLVQAGGSLRLSCAASGSSFRGYAMGWSRQAPGKERELVAAISRSGGSTYYADSVKGRFTISRDNAKNTVYLQMKSLKPEDTAVYYCNARCSKRSSRGYDYWGQGTQVTVSS,high polyreactivity
6,QVQLVESGGGLVQAGGSLRLSCAASGSSFRYNAMGWYREAPGKEREMVAAITSSATSTYYADSVKGRFTISRDNAKNTVYLQMNSLKPEATAVYYCAAPPVYKWVSSRYDYWGQGTQVTVSS,low polyreactivity
7,QVQLVESGGGLVQAGGSLRLSCAASGSSFSGNFMGWYRQAPGKERELVAAISGRGGSTYYADSVKGRFTISRDNAKNTVYLQMNSLKPEDTAVYYCDAVYLKTYYWGLGTQVTVSS,high polyreactivity
8,QVQLVESGGGLVQAGGSLRLSCAASGSSFTPNVMGWYRQAPGKERELVAAISQSGGSTFYADSVKGRFTISRDNAKNTVYLQMNSLKPEDTAVYYCATEYYGPVYDLDYDYWGQGTQVTVSS,low polyreactivity
9,QVQLVESGGGLVQAGGSLRLSCAASGSSFTRYAMGWYRQAPGKERELVATINFSGDRTYYADSVKGRFTISRDNAKNTVYLQMNSLKPEDTAVYYCNNYSYQWPYRRFDYWGQGTLVTVSS,high polyreactivity
10,QVQLVESGGGLVQAGGSLRLSCAASGSSFWYNAMGWYRQAPGKERELVATISSRGDGTYYADSVKGRFTISRDNAKNTVYLQMNSLKPEDTAVYYCNKYRQQGWEFDYWGQGTQVTVSS,high polyreactivity
11,QVQLVESGGGLVQAGGSLRLSCAASGSSKLMLWDGIDRRLGKKGSWLPLFVLVVLRNYADSVKGRFTISRDNAKNTVFLHMNSLKPEDTAVYYCAATPIGSGGWGDYWGQGTQVTVSS,low polyreactivity
12,QVQLVESGGGLVQAGGSLRLSCAASGSSVYRYAMGWYRQAPGKERELVAAITWSGGSTYYADSVKGRFTISRDNAKNTVYLQMNSLKPEDSAVYYCAVEPFSNEFYYWGQGTQVTVSS,low polyreactivity
13,QVQLVESGGGLVQAGGSLRLSCAASGSTCFDYAMGWYRQAPGKERELVAAISRSGDTNYADSVKGRFTISRDNAKNTVYLQMNILKPEDTAVYYCAKDWAYRRHWVGFYYWGQGTQVTVSS,low polyreactivity
14,QVQLVESGGGLVQAGGSLRLSCAASGSTCVSNAMGWYRQAPGKERELVAAISSGDNTNYADSVKGRFTISRDNAKNTVYVQMNSLKPEDTAVYYCAARAYRWRSFSTMYYWGQGTQVTVST,high polyreactivity
15,QVQLVESGGGLVQAGGSLRLSCAASGSTFAAKAMGWYRHAPGKERELVAAITSSGGSTYYADSVKGRFTISRDNAKNTVYLQMNSLKPEDTAVYYCNKDNERYVRIYDSWGQGTQVTVAS,low polyreactivity
16,QVQLVESGGGLVQAGGSLRLSCAASGSTFAANAMGWYRQAPGKERELVATISYRGGSTYYADSVKGRFTISRDNAKNTVYLQMNSLKPEDTAVYYCAAKLYYAFYSRYNYWGQGTQVTVSS,high polyreactivity
17,QVQLVESGGGLVQAGGSLRLSCAASGSTFAAYAMGWYRPAPGTERELVAAISASGGSTYYADSVKGRFTISRDNEKNTVYLQMNSLKPEDTAVYYCAARVFRGLGEYYWGQGTQVTVSS,high polyreactivity
18,QVQLVESGGGLVQAGGSLRLSCAASGSTFADYAMGWYRQAPGKERELVAAITSSGGDTYYADSVKGRFTISRDNAKNTVYLQMNSLKPEDTAVYYCAVVDTLYDSKYDYWGQGTQVTVSS,low polyreactivity
19,QVQLVESGGGLVQAGGSLRLSCAASGSTFAEYAMGWYRQAPGKERELVATITSSGGGTYYADSVKGRFTISRDNAKNTVYLQMNSLKPEDTAVYYCGQGTQVTVSS,low polyreactivity
20,QVQLVESGGGLVQAGGSLRLSCAASGSTFAFNAMGWYRPAPGKERELVASISGSGSSTYYADSVKGRFTISRDNAKNTVYLQMNSLKPEDTAVYYCAARVGARVSPPRRHGRFNYWGQGTQVTVSS,high polyreactivity
21,QVQLVESGGGLVQAGGSLRLSCAASGSTFAFNAMGWYRQAPGKERELVAGITRSGGRTYFADSVKGRFTISRDYAKNTVYLQMNSLKPEDTAVYYCAARRSGSKSGLFDYWGQGTQVTVSS,low polyreactivity
22,QVQLVESGGGLVQAGGSLRLSCAASGSTFAFYAMGWYRQAAGKERELVAAITWDGGTTYYADSVKGRFTLSRDNAKNTVYLQMNSLKPEDTAVYYCASDYAWFSIYDNVPSAPGYDYWGQGTQVTVSS,low polyreactivity
23,QVQLVESGGGLVQAGGSLRLSCAASGSTFAGFTMRWYRQAPGKERELVAAITTRGGRTYYADSVKGRFTISRDNAKNTVYLQMNSLKPEDTAVYYCAAVSRYYAELMYYWGQGTQVTVSS,high polyreactivity
24,QVQLVESGGGLVQAGGSLRLSCAASGSTFAGNAMGWYRQAPGKERELVAAISSSGAGTYYADSVKGRFTISRDNAKNTVYLQMNSLKPEVTAVYYCNVGSRALRRRVRSVSFDYWGQGTQVTVSS,low polyreactivity
25,QVQLVESGGGLVQAGGSLRLSCAASGSTFAGNAMGWYRQAPGKERELVAAITSGTGTHYADSVKGRFSISRDNAKNTVYLQMNSLKPEDTAVYYCAAEVWSWAGIWGYEYWGQGTQVTVSS,low polyreactivity
26,QVQLVESGGGLVQAGGSLRLSCAASGSTFAGNGMGWSRQAPGKERELVAGIDVTGGSTYYADSVKGRFTISRDNAKNTVYLQMNSLKPEDTAVYYCNARYVYHSSFAGFDYWGQGTQVTVSS,low polyreactivity
27,QVQLVESGGGLVQAGGSLRLSCAASGSTFAGNGMGWYRQAPGKERELVAGIDVTGGSTYYADSVKGRFTISRDNAKNTVYLQMNRLKPEDTAVYYCNARYVYHSSFAGFDYWGQGTQVTVSS,low polyreactivity
28,QVQLVESGGGLVQAGGSLRLSCAASGSTFAGNGMGWYRQAPGKERELVAGIDVTGGSTYYADSVKGRFTISRDNAKNTVYLQMNSLKPEDTAVYYCNARYVYHSSFAGFDYWGQGTQVTVSS,low polyreactivity
29,QVQLVESGGGLVQAGGSLRLSCAASGSTFAGYAMGWYRQAPGKERELVAAISYSGGTTYYADSVKGRFTISRDNAKNTVYLQMNSLKPEDTAVFYCAARKKYKTPSYDMYYWGQGTQVTVSS,high polyreactivity
30,QVQLVESGGGLVQAGGSLRLSCAASGSTFAGYVMGWYRQAPGKERELVADISGRGGNTYYADSVKGRFTISRDNAKNTVYLQMNRLKPEDTAVYYCASILSRRYGYWGQGTQVTVSS,high polyreactivity
